Reference: the supplement of paper PMC12042874
± gives the uncertainty stated by the source.

Test: amyloid nucleation score (Sup35N fusion, yeast selection) (log enrichment); library NNK1; higher = more nucleation; inactive = no reads after selection
How it was run: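 Libraries of peptides of 20 random codons fused to Sup35N were expressed in psi-negative yeast and induced 24 hours with 100 μM copper sulfate. Selection was 7 days at 30°C on medium lacking adenine and uracil, and plasmid inserts were Illumina-sequenced before and after selection. Nucleation score is the DiMSum log enrichment of output over input reads, centred on the mode score of non-aggregating sequences, and sequences with under 100 input reads were left out.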

| Substance | amyloid nucleation score |
| --- | --- |
| LHTCHSLLPLIEYDFISYGV | -0.208 ± 0.7 |
| TQMNR | -0.89 ± 0.51 |
| IVYLSCFVRCP | 0.379 ± 0.56 |
| GWKVCN | 0.362 ± 1.4 |
| IGMWSHWR | 0.137 ± 0.39 |
| NLSQSLVHRVSSVEYTLRLL | inactive |
| SNMRRASFNHGGRWNSGRGN | -1.1 ± 2.4 |
| RFLYVGCCINTIVGFTWFRS | 3.28 ± 0.11 |
| SKFTYRV | -0.302 ± 0.38 |
| PVFCPRV | -1.55 ± 1.3 |
| KDHTWWALCFYIKIFELKVR | 1.39 ± 0.73 |
| LRNDLVETSVLGA | 1.47 ± 0.54 |
| STFIDGSGIVALHCNSGCLA | 0.86 ± 0.73 |
| ILSVVYVLVCVVQVLCKQWH | 0.163 ± 0.43 |
| VFIVELNFMLRN | 4.69 ± 0.055 |
| PFHGFGR | -1.04 ± 0.53 |
| SNHDNFYPVVLCMESKYNIE | 0.302 ± 0.34 |
| IVDSVRGKGVY | 1.14 ± 0.79 |
| TYYGVSPDTASNAACLYPRH | -0.746 ± 1.9 |
| LGMGLTKLLSNYMSGIIVPL | -0.047 ± 1.7 |
| SYHVMNKDYMVYFKNTYKDK | 4.68 ± 0.078 |
| CVAWVSSNPRVGGDIRTWTE | 0.021 ± 0.48 |
| CMAVWEKIENGVHLLHRSAD | 2.76 ± 0.12 |
| RCVAPAV | 0.151 ± 0.56 |
| MPAWFILGDVVL | 1.2 ± 0.35 |

| Substance | amyloid nucleation score |
| --- | --- |
| LFVRKVIYVDR | 0.379 ± 0.33 |
| GGSYKEYTLCKHTAP | 0.506 ± 0.67 |
| RLQDSLPTSEVTEIPPPAN | -0.405 ± 0.33 |
| LTGGVDHC | 0.138 ± 0.32 |
| MYVNSSNYDLWMNFKIVFWA | 1.18 ± 0.25 |
| AIRMLSISCNFMVVIL | 0.837 ± 0.93 |
| LHRRSDNGESFWTEGSITFV | -0.086 ± 0.25 |
| RSYESCRAWLDEDGSVPIEC | 1 ± 0.49 |
| YWTALTFSHY | 0.486 ± 0.82 |
| CLTMWIV | -0.285 ± 0.68 |
| LLRLFALLTLNNLV | -0.296 ± 0.31 |
| LINSFLVLWKPFIFAEGRTR | 7.903 ± 0.066 |
| MICMD | -0.27 ± 0.3 |
| VGIPRYGYEPVVHALVKPFE | 0.959 ± 0.79 |
| ASNYGQWSCHPGRSLFVQFF | 4.56 ± 0.11 |
| SGSGRCTNLSCVGGFGKWLM | 0.714 ± 0.6 |
| GRSYFVVGFLSELCEKWLTK | 0.046 ± 1 |
| ATHPDSSMYNRTTSSNFMWF | -0.573 ± 0.75 |
| VRGYGGVC | -0.296 ± 0.3 |
| FVGQRKLLLKEEAQGFLQCK | -0.707 ± 1.2 |
| IGYFWCCRLETANIVFNFVW | -0.724 ± 1.3 |
| VCRRVHGSMP | -0.236 ± 1.2 |
| VILVFRVDNCTERKAN | -0.097 ± 0.5 |
| RLCWQDIGTLFVSWPRMIFV | 0.071 ± 0.45 |
| PKMPGMVYDTPN | -1.49 ± 2.4 |

| Substance | amyloid nucleation score |
| --- | --- |
| LSFIKRMTMNMLTKLD | 1.68 ± 0.13 |
| QGLNNMHSGVVLKMLT | 1.22 ± 0.54 |
| VTFRIVRVLPMEPVRTRAGD | -0.972 ± 0.54 |
| TSNIRVLGHAMVNWVCWGRD | 3.18 ± 0.18 |
| AERVCTFIL | -1.25 ± 1.1 |
| RWYVEPSSMFLSRLDGLFYK | -0.702 ± 1.9 |
| GSFVGRR | 0.241 ± 0.46 |
| WFIRARFTLGKRNELREVI | 0.647 ± 0.64 |
| NLGYDCGLGAMSGWMRWLIS | 0.459 ± 0.64 |
| MGCWCLASRDLTKT | -0.485 ± 1 |
| GYMSRVTLVVCTMMIRRNGD | 0.906 ± 0.24 |
| KENQSIRFWVD | inactive |
| LIVNLDMTSVLHVSGELR | 5.22 ± 0.078 |
| RSVYSDLSQTYRLQDFFETM | -1.69 ± 2.4 |
| CKHVETK | -0.535 ± 1.4 |
| FVPLTVN | -0.068 ± 0.28 |
| PTVLTVLFNRPFRSCN | -0.178 ± 0.61 |
| YRDDYACFLRPYPARCG | -0.141 ± 0.92 |
| RSRGCPRIFNGAKC | -0.392 ± 0.23 |
| VLMRSEMESRFNEGRSTQGC | 0.361 ± 0.3 |
| KWTGRGSYNDRLFVRRRMF | -0.073 ± 0.47 |
| CVALGLLGRCVLLVAGGGWA | 0.503 ± 0.54 |
| GSGNSHLLYRSSNRCLVLYR | -0.134 ± 0.32 |
| LYNTITRDTTPHGVEN | -1.84 ± 2.7 |
| SAAVGLLVHQYRSSELQLFN | 0.136 ± 1 |

| Substance | amyloid nucleation score |
| --- | --- |
| YMTQIMHKARRFNAWPAVMM | 0.087 ± 0.3 |
| SNDVIVWYPIDEGHAGCAYL | 1.75 ± 0.66 |
| FTFSTGLLFYMFLYGWVH | -0.62 ± 0.34 |
| VVIVGAGIPWILGESAVFRC | 0.218 ± 0.36 |
| ENFPPAQ | -0.691 ± 0.5 |
| MRWHINATLNGRLGAGLILV | -0.526 ± 0.7 |
| KADQCLSWDS | -0.717 ± 0.97 |
| LDASRNFVLLFS | 0.784 ± 0.34 |
| VPANEFCMADIMHRANRMLG | 0.758 ± 0.71 |
| FVRVLTFPYPMNVFIRLSLA | inactive |
| MSPLYNDFWYSCRIYKGEVM | 0.606 ± 0.55 |
| TTTCMRYGLIVC | 1.7 ± 0.52 |
| RIMLFFCCSSKVFDFPVLLM | 6.4 ± 0.064 |
| IPMPMLRRKKTGYLLSTGSA | 0.532 ± 0.49 |
| ILKSSGICFDGLPTKFNL | 0.127 ± 0.25 |
| FWSLRMLMLADSSDKCVDYC | inactive |
| SVQDFPDTSNNLASYVPSSW | -0.292 ± 0.74 |
| LSGGWEVPQVVAERKARPWI | -0.037 ± 1.7 |
| ITFIVAGI | -0.113 ± 0.21 |
| PQRRSHREKA | -0.557 ± 0.62 |
| LLIGYWLNLECLRYEMCHVL | -0.396 ± 0.66 |
| NGSSLVANELRVWIVSSFML | -0.59 ± 0.64 |
| SSLVVWNTQSSTLMTLLSYS | -0.915 ± 0.49 |
| SVWDERIPGGYSPIRVCPSW | -0.337 ± 0.74 |
| VFSSVGGETSYRCMGTASGT | -0.231 ± 0.46 |

| Substance | amyloid nucleation score |
| --- | --- |
| KPERICLWLVVKRYSMVHLW | 0.253 ± 0.51 |
| VYGMITIDNRQVRVVLGFRS | -0.549 ± 0.71 |
| LGDELDTDAASISSNMEIWS | inactive |
| HSHRVIS | 0.828 ± 0.51 |
| KCMEIILVLRVVRKWGSGGM | 0.654 ± 0.97 |
| HLINVQ | 0.632 ± 0.53 |
| LVGVWMDCLMKPKPIARTLP | inactive |
| ILHIEDAVMADWMHILMGSR | 0.571 ± 0.35 |
| GRDLPYMTRRNTLWSSKVVF | 0.206 ± 0.35 |
| DRRRVVNINARQSVNIRFRM | 8.53 ± 0.044 |
| ICKLRNSTGSTRIT | 0.227 ± 0.45 |
| ASVVQVTGRGSVGMVFPCCS | -0.558 ± 0.56 |
| SCSPGTYSWFNWWYKSPGVE | -0.021 ± 0.65 |
| CREVAKFGKLSNRQSRGCAI | -0.951 ± 1.4 |
| GGYGERRDVVVDRSYTVDTG | 0.071 ± 0.62 |
| QHHSRRMNLGC | -0.407 ± 0.32 |
| ADEVMKRRQLLINIVEYFMK | 0.2 ± 0.38 |
| ILIAIMNFARSEVVTNGHIR | 2.13 ± 0.41 |
| RGTWNDMASGEEVVAFIGEY | 0.51 ± 0.35 |
| LFFEVMHTFMLNMEFLLRFI | -1.12 ± 0.94 |
| GLCNGCIFWRVKRIKGLKWF | -0.381 ± 0.22 |
| SCVLRRNSHRIMDSYPRYGQ | 0.151 ± 0.29 |
| TCDFAAWICFYISLWVRVKI | -0.382 ± 0.61 |
| FRCLTVYCWF | 7.894 ± 0.044 |
| VFSKLDTLFTVSMTLRPMWP | 0.566 ± 0.79 |

| Substance | amyloid nucleation score |
| --- | --- |
| CICTRGMGSLSDCYELR | 0.689 ± 0.46 |
| YDSRCMAVSFSGSLFSHLLE | -0.317 ± 0.45 |
| VGIWLGTGTWGCKGL | 0.485 ± 0.66 |
| NTTYQTYR | 4.31 ± 0.074 |
| EITVAVSDYGVGSTWSG | 0.381 ± 0.84 |
| CWGFYL | -0.976 ± 1.1 |
| SSSRNLVSSRCLQVYLPMHA | 0.986 ± 0.71 |
| VLFGWGCGNTFSRPSNRGQR | 0.97 ± 0.37 |
| IVGVEGLKPIKAPLLLNRSV | inactive |
| VYFSSLVIFWYLFLYSFEYL | 0.689 ± 0.48 |
| TDNMWCSNVIFLECTN | 4.07 ± 0.12 |
| RCDGTQDKCWDKSLLFGERR | 0.618 ± 0.45 |
| RYYNFFMGLTWG | -0.395 ± 0.48 |
| MNMICSFL | -1.39 ± 1.4 |
| RDTICITL | 0.311 ± 0.82 |
| YICEFMIRTMKQPWPSKGEG | 0.542 ± 0.32 |
| QEGCQTLTSTSLVGGRKESS | 0.872 ± 0.75 |
| CLWCDRTVASWAKVSASVRL | -0.073 ± 0.24 |
| FRSLSSGIFGACWWYMFYSM | 0.229 ± 0.6 |
| YCCGDTPTFCSLKFIMS | 7.059 ± 0.047 |
| RYYRVLLKFVLLSLVCTRYA | 0.578 ± 0.19 |
| KCDRHLKSYWSKELHYYYNF | -0.894 ± 0.38 |
| DKSFDFVLGSEACMVVEVGN | -0.496 ± 0.61 |
| NAMVDGQGILIHSL | inactive |
| RVVRKPCFPGVGRILSADLA | 0.958 ± 0.59 |

| Substance | amyloid nucleation score |
| --- | --- |
| ATCNNI | -0.431 ± 1.4 |
| GLLETYDWAVQWTGHLEC | 0.168 ± 0.89 |
| PMTTWYSVFCAEFL | 0.688 ± 0.32 |
| LCEFSPLSCGCYGRDPHVPP | -0.73 ± 1.2 |
| YYVDV | -0.034 ± 0.88 |
| YPNHGLLRQ | 0.166 ± 0.43 |
| LSNFDRWKTSTVWNSGWFAA | -0.149 ± 1.3 |
| DLEPWWACLAKGSSGLISYV | 0.396 ± 0.38 |
| FFSYRDSISVKR | -0.449 ± 0.75 |
| NNDINFSDLFRCGERTYVFW | 2.24 ± 0.18 |
| NECLWSSFYLIICFLVCYYY | 0.278 ± 0.46 |
| LASHHLACCYPNLSTSYLNP | -0.118 ± 0.84 |
| SGAPRSCFNHSVFRMRASCL | 0.114 ± 1.4 |
| YYTVLLRS | -0.453 ± 0.52 |
| VSDRRTGVLRIHCNFKVGLS | 1.89 ± 0.16 |
| TGVCTGECWYRGLVQSCSGA | -0.239 ± 0.53 |
| RYSYFSSASCLRYRAPKGRG | 0.098 ± 0.32 |
| ENYTCRTWAPLSGPRIWVGS | 0.661 ± 0.77 |
| IVWFCINDTASVVLKTLLSH | 1.36 ± 0.78 |
| NPGRLRFTGTMRRTQKIEVA | -0.876 ± 0.49 |
| LMAHSGSAP | 3.3 ± 0.19 |
| SFSIN | 0.238 ± 0.29 |
| MKTMRKW | inactive |
